# Test results as given in patent US20140127212A1 (AstraZeneca / MedImmune, published 2014).
# Positions count from the first letter of the chain named.
# B1: Antibody 18 IgG (antibody, V domains shown)
# VH: QVQLVQSGAEVKKPGATVKLSCKVYGYIFTDYNIYWVRQAPGKGLEWMGLIDPDNGETFYAEKFQGRATMTADTSSDRAYMELTSLTFEDTATYYCATVLLRSAKGGYDYWGRGTLVTVSS
# VL: QSVLTQPPSVSGAPGQRVTISCTGSSSNIGAGYDVHWYQQLPGTAPKLLIYDNFNRPSGVPDRFSGSKSGTSASLAIIGLQTEDEADYYCQSYDSHLQLSPFGTGTKLTVL
# B2: Antibody 6 IgG (antibody, V domains shown)
# VH: B1 VH with L100M, L101G, R102K, S103W, A104I
# VL: B1 VL with H96T, L97M, Q98R, L99H, S100G
# notes: Whole human IgG (section 1.4, IgG1)
# B3: Antibody 12 IgG (antibody, V domains shown)
# VH: B1 VH with L100M, L101G, R102K, S103W, A104I
# VL: B1 VL with H96S, L97I, Q98D, L99H
# notes: as for B2
# B4: Antibody 23 IgG (antibody, V domains shown)
# VH: B1 VH with L100M, L101G, R102K, S103W, A104I
# VL: B1 VL with L97H, Q98L, L99Y, P101S
# notes: as for B2
# B5: Antibody 28 IgG (antibody, V domains shown)
# VH: B1 VH with L100M, L101G, R102K, S103W, A104I
# VL: B1 VL with H96S, L97S, Q98L, L99H
# notes: as for B2
# B6: Antibody 11 IgG (antibody, V domains shown)
# VH: B1 VH with L100M, L101G, R102K, S103W, A104I
# VL: B1 VL with H96P, L97T, Q98L, L99T
# notes: as for B2
# B7: Antibody 20 IgG (antibody, V domains shown)
# VH: B1 VH with L100M, L101G, R102K, S103W, A104I
# VL: B1 VL with H96S, L97T, Q98S, L99S
# notes: as for B2
# B8: Antibody 16 IgG (antibody, V domains shown)
# VH: B1 VH with L100S, R102K
# VL: B1 VL with H96R, L97H, Q98H, L99H, S100A
# notes: as for B2
# B9: Antibody 8 IgG (antibody, V domains shown)
# VH: B1 VH with L101G, S103W, A104I
# VL: B1 VL with H96P, L97T, Q98H, L99T
# notes: as for B2
# B10: Antibody 5 IgG (antibody, V domains shown)
# VH: B1 VH with L100M, L101G, R102K, S103W, A104I
# VL: B1 VL with H96T, L97K, Q98H, L99T
# notes: as for B2
# B11: Antibody 13 IgG (antibody, V domains shown)
# VH: B1 VH with L100M, L101G, R102K, S103W, A104I
# VL: B1 VL with H96N, L97I, Q98L, L99Y
# notes: as for B2
# B12: Antibody 4 IgG (antibody, V domains shown)
# VH: B1 VH with L100M, L101G, R102K, S103W, A104I
# VL: B1 VL with H96R, L97G, Q98G, L99H
# notes: as for B2
# B13: Antibody 19 IgG (antibody, V domains shown)
# VH: B1 VH with L100M, L101G, R102K, S103W, A104I
# VL: B1 VL with H96T, Q98S, L99H
# notes: as for B2
# B14: Antibody 2 scFv (scFv, V domains shown)
# VH: B1 VH with L100S
# VL: B1 VL with H96S, Q98S, L99G, P101L
# notes: Purified scFv
# B15: Antibody 14 scFv (scFv, V domains shown)
# VH: B1 VH with L100M, L101G, R102K, S103W, A104I
# VL: B1 VL with L97H, Q98R, L99H
# notes: Purified scFv
# B16: Antibody 7 scFv (scFv, V domains shown)
# VH: B1 VH with L100T, R102K
# VL: B1 VL with H96D, L97R, Q98R, L99N
# notes: Purified scFv
# B17: Antibody 5 scFv (scFv, V domains shown)
# VH: B1 VH with L100M, L101G, R102K, S103W, A104I
# VL: B1 VL with H96T, L97K, Q98H, L99T
# notes: Purified scFv
# B18: Antibody 25 scFv (scFv, V domains shown, not shown: small tags and cut ends)
# VH: B1 VH with L100T, R102K
# VL: B1 VL with H96N, L97H, Q98K, L99T
# notes: Purified scFv
# B19: Antibody 4 scFv (scFv, V domains shown)
# VH: B1 VH with L100M, L101G, R102K, S103W, A104I
# VL: B1 VL with H96R, L97G, Q98G, L99H
# notes: Purified scFv
# B20: Antibody 13 scFv (scFv, V domains shown)
# VH: B1 VH with L100M, L101G, R102K, S103W, A104I
# VL: B1 VL with H96N, L97I, Q98L, L99Y
# notes: Purified scFv
# B21: Antibody 12 scFv (scFv, V domains shown)
# VH: B1 VH with L100M, L101G, R102K, S103W, A104I
# VL: B1 VL with H96S, L97I, Q98D, L99H
# notes: Purified scFv
# B22: Antibody 10 scFv (scFv, V domains shown)
# VH: B1 VH with L100S, S103A
# VL: B1 VL with H96E, L97Q, Q98E, S100A
# notes: Purified scFv
# B23: Antibody 24 scFv (scFv, V domains shown, not shown: small tags and cut ends)
# VH: B1 VH with L100T, R102K, S103T
# VL: B1 VL with H96R, L97N, Q98G, L99Y, S100G, P101G
# notes: Purified scFv
# B24: Antibody 18 scFv (scFv, V domains shown)
# VH: B1 VH
# VL: B1 VL
# notes: Purified scFv
# B25: Antibody 26 scFv (scFv, V domains shown, not shown: small tags and cut ends)
# VH: B1 VH with L100S, R102K, S103E
# VL: B1 VL with H96A, L97S, Q98R, L99H, S100A
# notes: Purified scFv
# B26: Antibody 21 scFv (scFv, V domains shown)
# VH: B1 VH with L100T, R102K
# VL: B1 VL with H96S, L97S
# notes: Purified scFv
# B27: Antibody 16 scFv (scFv, V domains shown)
# VH: B1 VH with L100S, R102K
# VL: B1 VL with H96R, L97H, Q98H, L99H, S100A
# notes: Purified scFv
# B28: Antibody 22 scFv (scFv, V domains shown)
# VH: B1 VH with L100T, R102K
# VL: B1 VL with H96S, L97G, Q98G, L99Y, S100A
# notes: Purified scFv
# B29: Antibody 28 scFv (scFv, V domains shown, not shown: small tags and cut ends)
# VH: B1 VH with L100M, L101G, R102K, S103W, A104I
# VL: B1 VL with H96S, L97S, Q98L, L99H
# notes: Purified scFv
# B30: Antibody 15 scFv (scFv, V domains shown)
# VH: B1 VH with L100T, R102K, S103T
# VL: B1 VL with L97K, Q98G, L99Y, S100G, P101G
# notes: Purified scFv
# B31: Antibody 6 scFv (scFv, V domains shown)
# VH: B1 VH with L100M, L101G, R102K, S103W, A104I
# VL: B1 VL with H96T, L97M, Q98R, L99H, S100G
# notes: Purified scFv
# B32: Antibody 8 scFv (scFv, V domains shown)
# VH: B1 VH with L101G, S103W, A104I
# VL: B1 VL with H96P, L97T, Q98H, L99T
# notes: Purified scFv
# B33: Antibody 3 scFv (scFv, V domains shown)
# VH: B1 VH with L100M, L101G, R102K, S103W, A104I
# VL: B1 VL with H96T, L97F, Q98N, L99H, S100A
# notes: Purified scFv
# B34: Antibody 27 scFv (scFv, V domains shown, not shown: small tags and cut ends)
# VH: B1 VH with L100S, R102K, S103E
# VL: B1 VL with H96P, L97T, L99T
# notes: Purified scFv
# B35: Antibody 11 scFv (scFv, V domains shown)
# VH: B1 VH with L100M, L101G, R102K, S103W, A104I
# VL: B1 VL with H96P, L97T, Q98L, L99T
# notes: Purified scFv
# B36: Antibody 9 scFv (scFv, V domains shown)
# VH: B1 VH with L100T
# VL: B1 VL with H96P, L97S, Q98S, L99T
# notes: Purified scFv
# B37: Antibody 23 scFv (scFv, V domains shown, not shown: small tags and cut ends)
# VH: B1 VH with L100M, L101G, R102K, S103W, A104I
# VL: B1 VL with L97H, Q98L, L99Y, P101S
# notes: Purified scFv
# B38: Antibody 17 scFv (scFv, V domains shown)
# VH: B1 VH with L100T, R102K
# VL: B1 VL with H96Q, L97S, Q98S, L99T
# notes: Purified scFv
# B39: Antibody 1 IgG (antibody, V domains shown)
# VH: B1 VH with L101H, S103R, A104L
# VL: B1 VL with H96S, Q98S, L99G, P101L
# notes: Whole human IgG (section 1.4, IgG1); also called parent antibody
# Target: T1, cynomolgus IgE (recombinant chimaeric D12 variable region and cynomolgus IgE constant region) (cynomolgus monkey (constant region); …)
# Assay: cell-based or functional assay
# T1 sequence (heavy, as listed by the source limits assumed, chain 1 of 2): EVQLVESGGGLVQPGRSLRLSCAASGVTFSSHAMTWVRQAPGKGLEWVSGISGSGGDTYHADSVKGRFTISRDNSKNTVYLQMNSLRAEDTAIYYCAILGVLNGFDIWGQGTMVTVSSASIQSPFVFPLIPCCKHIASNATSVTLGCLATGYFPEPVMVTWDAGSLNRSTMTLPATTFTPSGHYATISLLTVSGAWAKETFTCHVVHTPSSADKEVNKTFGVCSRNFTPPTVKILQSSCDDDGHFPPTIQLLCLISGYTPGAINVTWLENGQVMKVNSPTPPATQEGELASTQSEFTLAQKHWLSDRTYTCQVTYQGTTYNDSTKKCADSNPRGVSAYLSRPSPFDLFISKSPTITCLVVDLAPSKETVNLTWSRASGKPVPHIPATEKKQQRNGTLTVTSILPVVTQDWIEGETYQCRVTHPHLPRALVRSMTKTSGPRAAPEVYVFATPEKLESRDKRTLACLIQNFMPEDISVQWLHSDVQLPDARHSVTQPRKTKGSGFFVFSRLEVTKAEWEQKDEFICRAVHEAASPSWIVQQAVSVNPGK
# T1 sequence (light, as listed by the source limits assumed, chain 2 of 2): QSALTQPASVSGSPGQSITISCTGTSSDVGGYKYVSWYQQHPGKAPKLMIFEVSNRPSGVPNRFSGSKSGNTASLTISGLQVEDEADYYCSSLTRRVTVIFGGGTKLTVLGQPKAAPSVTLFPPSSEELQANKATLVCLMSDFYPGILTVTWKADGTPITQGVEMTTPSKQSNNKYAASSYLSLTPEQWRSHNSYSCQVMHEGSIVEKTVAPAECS
row,"RBL-ER51 calcium signalling IC50 (nM), Cynomolgus IgE, geomean [nM]",Binder
1,2.97,B1
2,0.168,B2
3,0.334,B3
4,0.523,B4
5,0.253,B5
6,0.153,B6
7,0.31,B7
8,4.38,B8
9,0.188,B9
10,0.181,B10
11,0.244,B11
12,0.151,B12
13,0.111,B13

# Target: T1, cynomolgus IgE (recombinant chimaeric …)
# Assay: SPR BIAcore; IgG captured on protein G', IgE analyte, bivalent analyte fit; geomean
row,Kd [nM],Binder
1,3.7,B2
2,230,B3
3,4.3,B4
4,7.2,B5
5,9.3,B6
6,10.5,B7
7,62,B8
8,6.3,B9
9,7.9,B10
10,9.9,B11
11,8,B12
12,7.9,B13

# Target: MOv18 IgE
# Assay: cell-based or functional assay
row,Binder,"IC50 (read off the curve), IgE/FcεRI-mediated cytotoxicity [nM]"
1,B6,~0.1

# Target: T1, cynomolgus IgE (recombinant chimaeric …)
# Assay: HTRF competition; scFv titrated vs Eu-cryptate cynomolgus IgE binding to human FcεRI-Fc; geomean
row,IC50 [nM],Binder
1,317,B14
2,15,B15
3,186,B16
4,6,B17
5,86,B18
6,5,B19
7,7,B20
8,7,B21
9,116,B22
10,111,B23
11,110,B24
12,121,B25
13,65,B26
14,63,B27
15,68,B28
16,7,B29
17,172,B30
18,11,B31
19,12,B32
20,18,B33
21,117,B34
22,7,B35
23,132,B36
24,6,B37
25,109,B38

# Target: human IgE (preparation not stated, or 'Calbiochem or U266-derived') (human, UniProt P01854-1 1-428)
# Assay: cell-based or functional assay
# human IgE (preparation not stated, or 'Calbiochem or U266-derived'), sequence (P01854 other isoform, or with tags, fused parts or gaps): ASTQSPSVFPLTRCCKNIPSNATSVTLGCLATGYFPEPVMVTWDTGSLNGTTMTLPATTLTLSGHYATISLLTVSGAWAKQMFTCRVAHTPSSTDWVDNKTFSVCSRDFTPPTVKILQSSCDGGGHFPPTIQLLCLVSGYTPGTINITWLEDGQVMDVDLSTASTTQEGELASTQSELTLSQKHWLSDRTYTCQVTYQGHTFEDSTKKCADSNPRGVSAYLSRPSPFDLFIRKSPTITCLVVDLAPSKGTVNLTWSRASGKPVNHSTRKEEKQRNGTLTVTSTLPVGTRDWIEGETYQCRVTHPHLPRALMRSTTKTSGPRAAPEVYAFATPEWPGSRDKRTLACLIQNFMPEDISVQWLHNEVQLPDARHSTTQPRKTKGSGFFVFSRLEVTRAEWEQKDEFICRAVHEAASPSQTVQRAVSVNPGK
row,"IgE induced calcium signalling of RBL-ER51 cells, IC50 [nM]",Binder
1,34,B39

# Target: T2, cynomolgus IgE Cε3-Cε4 domain, C-terminally tagged with FLAG His10 (cynomolgus monkey)
# T2 construct: also called Cynomolgus Ce3-4 FLAG His10
# T2 chain: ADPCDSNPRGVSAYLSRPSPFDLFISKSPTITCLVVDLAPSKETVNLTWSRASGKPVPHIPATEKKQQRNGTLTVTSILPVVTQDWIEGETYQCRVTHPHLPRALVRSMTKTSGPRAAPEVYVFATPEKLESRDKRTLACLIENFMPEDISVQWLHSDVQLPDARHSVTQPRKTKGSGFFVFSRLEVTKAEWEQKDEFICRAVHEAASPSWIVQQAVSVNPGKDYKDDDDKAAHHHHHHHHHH
# Assay: DELFIA epitope competition; competitor vs biotinylated IgE on immobilised IgG
row,binding result,Binder
1,binds,B39
